Test results published in paper PMC10570131, “TXNL1 has dual functions as a redox active thioredoxin-like protein as well as an ATP- and redox-independent chaperone” (Redox Biology, 2023).

Target: the molecule itself
Test: non-reducing SDS-PAGE with Western blot; pure control proteins and chromatography fractions separated on SDS-PAGE without or with DTT, blotted with anti-TXNL1 or anti-Trx1

| Protein | binding result |
| --- | --- |
| Thioredoxin-like protein 1 (TXNL1), human, wildtype (natural protein, UniProt O43396 1-289, looked up, human TXNL1, open reading frame synthesised codon-optimised for E. coli; N-terminal Trx-fold domain (active site CGPC) and C-terminal PITH domain; also called TRP32; thioredoxin related protein of 32 kDa; not shown: His6, N-terminal, cleaved; GFP, N-terminal, cleaved; SUMO, N-terminal, cleaved) MVGVKPVGSDPDFQPELSGAGSRLAVVKFTMRGCGPCLRIAPAFSSMSNKYPQAVFLEVDVHQCQGTAATNNISATPTFLFFRNKVRIDQYQGADAVGLEEKIKQHLENDPGSNEDTDIPKGYMDLMPFINKAGCECLNESDEHGFDNCLRKDTTFLESDCDEQLLITVAFNQPVKLYSMKFQGPDNGQGPKYVKIFINLPRSMDFEEAERSEPTQALELTEDDIKEDGIVPLRYVKFQNVNSVTIFVQSNQGEEETTRISYFTFIGTPVQATNMNDFKRVVGKKGESH | binds |
| Thioredoxin (Trx1), human (natural protein, UniProt P10599-1 1-105, looked up, also called TXN; not shown: His6, N-terminal, cleaved; GFP, N-terminal, cleaved; SUMO, N-terminal, cleaved) MVKQIESKTAFQEALDAAGDKLVVVDFSATWCGPCKMIKPFFHSLSEKYSNVIFLEVDVDDCQDVASECEVKCMPTFQFFKKGQKVGEFSGANKEKLEATINELV | binds |
